Values quoted from earlier work in patent US7037697B2, “Isozyme of autoclavable superoxide dismutase (SOD), a process for the identification and extraction of the SOD and use of the said SOD in cosmetic, food, and pharmaceutical compositions” (Council of Scientific & Industrial Research, priority 2000, dated 2006).

Conditions: Cu/Zn-SOD, Bonaccorsi di Patti et al. 1994

| Molecule | conformational melting temperatures [°C] |
| --- | --- |
| ox: Cu/Zn-SOD from ox | 88.05 |
| yeast: Cu/Zn-SOD from yeast (protein, UniProt P00445 2-154, looked up) Superoxide dismutase [Cu-Zn]: VQAVAVLKGDAGVSGVVKFEQASESEPTTVSYEIAGNSPNAERGFHIHEFGDATNGCVSAGPHFNPFKKTHGAPTDEVRHVGDMGNVKTDENGVAKGSFKDSLIKLIGPTSVVGRSVVIHAGQDDLGKGDTEESLKTGNAGPRPACGVIGLTN | 73.1 |
